Experimental data from paper PMC3372767 (Biochimica et Biophysica Acta, 2012).

Tests used:
[1] = target: full-length ectodomain of human CSF-1R (hCSF-1R D1-D5) (human, UniProt P07333 20-517); experiment: ITC
[2] = target: N-terminal three Ig-like domains of human CSF-1R (hCSF-1R D1-D3) (human, UniProt P07333 20-298); experiment: ITC
N-terminal three Ig-like domains of human CSF-1R (hCSF-1R D1-D3), sequence (P07333 20-298): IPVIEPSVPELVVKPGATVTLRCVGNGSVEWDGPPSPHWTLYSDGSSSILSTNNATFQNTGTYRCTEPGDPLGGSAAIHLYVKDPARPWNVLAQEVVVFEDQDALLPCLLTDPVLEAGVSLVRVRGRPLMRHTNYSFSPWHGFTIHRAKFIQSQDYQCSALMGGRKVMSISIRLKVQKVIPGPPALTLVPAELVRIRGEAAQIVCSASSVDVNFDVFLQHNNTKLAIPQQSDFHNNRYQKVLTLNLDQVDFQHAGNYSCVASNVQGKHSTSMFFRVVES

full-length ectodomain of human CSF-1R (hCSF-1R D1-D5), sequence (P07333 20-517): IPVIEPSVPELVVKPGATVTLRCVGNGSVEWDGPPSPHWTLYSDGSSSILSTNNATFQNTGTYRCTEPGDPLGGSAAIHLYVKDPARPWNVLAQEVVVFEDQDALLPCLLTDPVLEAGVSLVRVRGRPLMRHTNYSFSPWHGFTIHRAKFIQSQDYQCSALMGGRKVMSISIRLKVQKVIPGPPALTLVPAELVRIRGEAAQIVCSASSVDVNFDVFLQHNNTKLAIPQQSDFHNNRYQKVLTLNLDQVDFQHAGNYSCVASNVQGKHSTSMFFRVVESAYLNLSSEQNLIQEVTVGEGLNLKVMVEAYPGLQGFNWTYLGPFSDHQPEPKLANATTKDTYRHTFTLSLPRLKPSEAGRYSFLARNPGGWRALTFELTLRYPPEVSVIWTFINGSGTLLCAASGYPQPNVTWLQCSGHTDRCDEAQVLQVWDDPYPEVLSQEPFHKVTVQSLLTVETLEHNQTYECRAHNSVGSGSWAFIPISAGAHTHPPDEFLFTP

fold higher affinity than to CSF-1R D1-D3 [1]: ~400 fold | stoichiometry N [1]: 1 | stoichiometry N [2]: 1
B1: human IL-34 (ligand, UniProt Q6ZMJ4 21-242, looked up)
chain: NEPLEMWPLTQNEECTVTGFLRDKLQYRSRLQYMKHYFPINYKISVPYEGVFRIANVTRLQRAQVSERELRYLWVLVSLSATESVQDVLLEGHPSWKYLQEVETLLLNVQQGLTDVEVSPKVESVLSLLNAPGPNLKLVRPKALLDNCFRVMELLYCSCCKQSSVLNWQDCEVPSPQSCSPEPSLQYAATQLYPPPPWSPSSPPHSTGSVRPVRAQGEGLLP
